In this assay the target is HLA-A2 (human). Kind of assay: HLA-A2 stabilization assay.

With EIWTFSYKV [J65, variant of FBP epitope E39 (H5→F, Y7→T)], the HLA-A2 stabilizing ability relative to E39 was 0.5 fold of E39.

Source of the values: patent US20090227510A1.
